T1: KKAAAAAAAKK
T1 construct: Non-substrate peptide; also called A7; KKA7KK
T1 peptide: KKAAAAAAAKK

T2: KKVVVVVVVKK
T2 construct: Substrate peptide; also called V7; KKV7KK
T2 peptide: KKVVVVVVVKK

T3: KKVVVVVKK
T3 construct: Substrate peptide; also called V5; KKV5KK
T3 peptide: KKVVVVVKK


Tests used:
Aβ(M1-40) [1] = target: Aβ(M1-40) (human); assay: cell-based or functional assay
Aβ(M1-42) = Aβ(M1-42) (human); assay: cell-based or functional assay
Aβ(M1-40) [2] = target: T4, Aβ(M1-40) (human); assay: estimate from peak shapes in gel filtration (intermediate exchange on the gel filtration time scale)
T4 construct: Expressed in E. coli from a synthetic gene, and the monomer was isolated by gel filtration; also called Aβ40; human Aβ1-40 peptide
Procedure: Samples were injected from a 1 mL loop and chromatograms recorded by monitoring the absorbance at 280 nm. To monitor protein interactions, mixtures of Aβ and BRICHOS domains were injected directly after mixing or after 2 or 20 hours incubation at 37° C. in 20 mM Na-phosphate, 200 μM EDTA, 0.02% NaN₃ at pH 7.4 or pH 8.0. Fractions (0.3-0.7 ml) were collected during the chromatogram, lyophilized and analyzed by SDS PAGE in a 10-20% gradient gel.
The interaction between the BRICHOS proteins and Aβ was studied using gel filtration. Samples of 8 μM Aβ40 and 0.8 μM proSP-C BRICHOS, or 8 μM Aβ40 and 0.8 μM Bri2 BRICHOS, were incubated for 20 hours at 37° C., followed by gel filtration on a Superdex75 column, and SDS PAGE analysis of collected fractions.
The 20 h time point was chosen for investigating potential interactions between the BRICHOS protein and Aβ, because at this time point Aβ alone would have fibrillated and reached the equilibrium plateau, whereas samples containing 0.1 molar equivalent of proSP-C or Bri2 BRICHOS are still in the lag phase (c.f. FIG. 9). The data in FIG. 11 show clearly that at this time point almost all of Aβ40 is monomeric, while a minor fraction elutes together with proSP-C BRICHOS in fractions 2-6. Similar results are observed for 8 μM Aβ40 and 0.8 μM Bri2 BRICHOS (FIG. 12B). […]

KKAAAAAAAKK = target: T1, KKAAAAAAAKK; assay: HDX-MS
Procedure: (§1) Deuterated buffers were prepared by three rounds of freeze-drying of the 1 M stock Tris buffer, pH 8, and reconstitution in 99.9% D₂O (Cambridge Isotopes, Andover, Mass.) to a final Tris concentration of 20 mM. To start the incubation at 22° C., CTC (CTproSP-C) stock solution with a concentration of 0.9 mM was diluted in deuterated Tris buffer to a final deuterium content of 92.5%. For CTC/peptide and proSP-C BRICHOS/peptide interaction studies, KKV₇KK, KKV₅KK, or KKA₇KK were pre-incubated with either Tris buffer or proteins, for 10 min at 22° C., and subsequently diluted in deuterated Tris buffer. Final concentrations were 30 μM CTC or proSP-C BRICHOS and 40 μM peptide. The deuterium content was 92.5%. Aliquots of 20 μl were collected in triplicates from three separate incubations after 1, 5, 10, 30, and 60 min. Fully deuterated protein was prepared by freeze-drying a sample of CTC, followed by resuspension in 99.9% D₂O and incubation for 4 h at 50° C. Deuterium exchange was quenched by transferring aliquots to pre-chilled Eppendorf tubes containing 0.5 μL 5% trifluoroacetic acid (TFA) (Merck, Darmstadt, Germany), vortexing, and freezing in liquid nitrogen. Samples were kept in liquid nitrogen until analyzed.
(§2) Aliquots of deuterated CTC were thawed and injected into an HPLC system using a pre-chilled Hamilton syringe. The system was submersed in an ice bath during analysis. […]

KKVVVVVVVKK = target: T2, KKVVVVVVVKK; assay: HDX-MS, 30 µM CTC and 40 µM peptide
Procedure: as §1, §2

KKVVVVVKK = target: T3, KKVVVVVKK; assay: HDX-MS, 30 µM CTC and 40 µM peptide
Procedure: as §1, §2

[3] = target: the molecule itself; assay: crystal structure, subunit to subunit in the homotrimer
Procedure: Crystals suitable for structure determination were obtained within weeks by means of in situ proteolysis with trypsin. […] The structure presented herein was derived from crystals of seleno-methionylated protein, obtained using the sitting-drop method at 293 K and 277 K, in various concentrations ranging between 0.3-0.7 mM. A single crystal belonging to space group C2 (a=132.05 Å, b=39.33 Å, c=114.76 Å, β=99.6°) was grown from 0.1 M Bis-Tris pH 6.5 and 20% (w/v) PEG MME 5K. The crystal was soaked in 30% (w/v) PEG 400, flash-frozen in liquid nitrogen and used for data collection.
Data to 2.1 Å were collected at the European Synchrotron Radiation Facility, France, using an ADSC Q315 detector on the ID23eh1 beam line. All data were processed in MOSFLM12 and scaled in SCALA13. Data are essentially 100% complete to 2.3 Å Bragg spacing, then drop off rapidly and are only ˜60% complete in the outer resolution shell to 2.1 Å.

T4 sequence (peptide, as listed by the source): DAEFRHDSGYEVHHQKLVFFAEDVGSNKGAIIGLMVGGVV
Chain of Aβ(M1-42) (human) (peptide, as listed by the source): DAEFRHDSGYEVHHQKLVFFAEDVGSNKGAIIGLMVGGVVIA

Row | Binder | 10-fold increase in lag time of Aβ40 aggregation (ThT fluorescence) (Aβ(M1-40) [1]) [equivalents] | molar ratio above which the lag time of Aβ40 aggregation exceeds one week (Aβ(M1-40) [1]) [molar ratio] | ratio above which Aβ40 aggregation does not occur within one week (Aβ(M1-40) [1]) | ten-fold increase in lag time of Aβ42 aggregation (ThT fluorescence) (Aβ(M1-42)) [molar equivalents] | koff (Aβ(M1-40) [2]) [s⁻¹] | binding result (KKVVVVVVVKK) | binding result (KKVVVVVKK) | binding result (KKAAAAAAAKK) | binding result [3]
1 | crystallised proSP-C BRICHOS trimer (seleno-methionylated CTC after in situ proteolysis with trypsin, residues 82-160 and 168-197 of proSP-C) (other, seleno-methionylated protein; seleno-methionylated protein; disulfide bridge Cys121-Cys189 to the second chain, There are two trimers per asymmetric unit, and data extend to 2.1 Å; Residues about 149-180 are not modelled; also called crystallized protein) chain 1: LALSEHLVTTATFSIGSTGLVVYDYQQLLIAYKPAPGTCCYIMKIAPESIPSLEALNRKVHNFQMECSLQAKPAVPTSK chain 2: DAGSAPSGGDPAFLGMAVNTLCGEVPLYYI |  |  |  |  |  |  |  |  | binds
2 | Bri2 BRICHOS (recombinant human Bri2 BRICHOS construct as described in Peng et al. 2010) (other, also called Bri2 BRICHOS domain; BRICHOS protein) GIKYIKDDVILNEPSADAPAALYQTIEENIKIFEEEEVEFISVPVPEFADSDPANIVHDFNKKLTAYLDLNLDKCYVIPLNTSIVMPPRNLLELLINIKAGTYLPQSYLIHEHMVITDRIENIDHLGFFIYRLCHDKETYKLQRRET | ~0.01 | 0.025 |  | ~0.6 | 0.001 to 0.01 |  |  |  | 

More lines, main results first:

Row | 10-fold increase in lag time of Aβ40 aggregation (ThT fluorescence) (Aβ(M1-40) [1]) [equivalents] | molar ratio above which the lag time of Aβ40 aggregation exceeds one week (Aβ(M1-40) [1]) [molar ratio] | ratio above which Aβ40 aggregation does not occur within one week (Aβ(M1-40) [1]) | ten-fold increase in lag time of Aβ42 aggregation (ThT fluorescence) (Aβ(M1-42)) [molar equivalents] | koff (Aβ(M1-40) [2]) [s⁻¹] | binding result (KKVVVVVVVKK) | binding result (KKVVVVVKK) | Binder | binding result (KKAAAAAAAKK) | binding result [3]
3 | ~0.03 | 0.06 | 10 Aβ40 molecules per 1 proSP-C BRICHOS | ~0.6 | 0.001 to 0.01 |  |  | proSP-C BRICHOS (recombinant human, His59 to Ile197 of proSP-C, Examples 4-8) (other, Expressed in E. coli, with the thioredoxin and His6-tag removed by thrombin; Gel filtration indicates a trimer at 0 h and monomers eluting with Aβ after 20 h; also called recombinant human proSP-C BRICHOS; BRICHOS protein) HMSQKHTEMVLEMSIGAPEAQQRLALSEHLVTTATFSIGSTGLVVYDYQQLLIAYKPAPGTCCYIMKIAPESIPSLEALNRKVHNFQMECSLQAKPAVPTSKLGQAEGRDAGSAPSGGDPAFLGMAVNTLCGEVPLYYI |  | 
4 |  |  |  |  |  | binds | binds | CTproSP-C, the C-terminal domain of lung surfactant protein C precursor (residues 59-197 of human proSP-C) (other, also called CTC; recombinant CTC) HMSQKHTEMVLEMSIGAPEAQQRLALSEHLVTTATFSIGSTGLVVYDYQQLLIAYKPAPGTCCYIMKIAPESIPSLEALNRKVHNFQMECSLQAKPAVPTSKLGQAEGRDAGSAPSGGDPAFLGMAVNTLCGEVPLYYI | no binding (tested: 30 µM CTC and 40 µM peptide) | 

Reference: patent publication US20140030274A1 (ALPHABETA, published 2014)
